Reference: publication PMC8891019, “TDP-43 represses cryptic exon inclusion in the FTD–ALS gene UNC13A”
Substitutions are numbered along the chain they refer to.

Key:
[1] = target: T1, TDP-43-MBP (full-length wild-type TDP-43) (UniProt Q13148 1-414); assay: EMSA; Kd,app only in figure; much lower affinity than intron probe; EMSA: 1 nM RNA, 50 mM Tris-HCl pH 7.5, 100 mM KCl, 2 mM MgCl2, 100 mM beta-mercaptoethanol, 0.1 mg/ml BSA, 30 min, room temperature; TDP-43 0-4 (printed mM in Methods, 0-8 uM in legend); 6% native PAGE, Cy5 imaging; details: protein: recombinant, tags: MBP, Ni-NTA purified, label: 5' Cy3 on strand 1, 3' Cy5 on 18-mer
T1 sequence (Q13148 whole entry): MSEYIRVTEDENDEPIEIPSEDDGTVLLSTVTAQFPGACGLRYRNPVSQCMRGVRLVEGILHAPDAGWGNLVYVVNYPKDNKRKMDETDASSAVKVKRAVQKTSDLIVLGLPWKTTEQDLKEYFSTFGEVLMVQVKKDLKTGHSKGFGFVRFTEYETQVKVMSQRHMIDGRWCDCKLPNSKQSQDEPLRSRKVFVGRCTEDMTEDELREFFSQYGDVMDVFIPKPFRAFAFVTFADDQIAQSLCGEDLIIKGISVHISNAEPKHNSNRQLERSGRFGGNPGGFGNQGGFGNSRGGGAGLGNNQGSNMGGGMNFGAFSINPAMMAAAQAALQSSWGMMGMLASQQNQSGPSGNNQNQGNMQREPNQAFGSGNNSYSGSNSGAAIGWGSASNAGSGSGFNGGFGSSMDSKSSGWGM

[2] = target: T1, TDP-43-MBP (full-length wild-type …); assay: EMSA; Kd,app only in figure; affinity similar to CE Ref; EMSA: 1 nM RNA, 50 mM Tris-HCl pH 7.5, 100 mM KCl, 2 mM MgCl2, 100 mM beta-mercaptoethanol, 0.1 mg/ml BSA, 30 min, room temperature; TDP-43 0-4 (printed mM in Methods, 0-8 uM in legend); 6% native PAGE, Cy5 imaging; details: protein: recombinant; tags: MBP; Ni-NTA purified; label: 5' Cy3 on strand 1; 3' Cy5 on 18-mer; 18 bp duplex at 3' end of strand 1, 5' ssRNA overhang 26 nt
[3] = target: T1, TDP-43-MBP (full-length wild-type …); assay: EMSA; Kd,app only in figure; much higher affinity than exon or repeat; EMSA: 1 nM RNA, 50 mM Tris-HCl pH 7.5, 100 mM KCl, 2 mM MgCl2, 100 mM beta-mercaptoethanol, 0.1 mg/ml BSA, 30 min, room temperature; TDP-43 0-4 (printed mM in Methods, 0-8 uM in legend); 6% native PAGE, Cy5 imaging; details: protein: recombinant; tags: MBP; Ni-NTA purified; label: 5' Cy3 on strand 1; 3' Cy5 on 18-mer; 18 bp duplex at 3' end of strand 1, 5' ssRNA overhang

B1: CE Ref (G), rs12973192 (mixed)
RNA 1: AAGGAUGGAUGGAGAGAUGGGUGAGUGCCUCGCUGCCGUCGCCA
RNA 2: UGGCGACGGCAGCGAGGC
modifications: 5' biotin on 18-mer strand
binding result ([1]; 18 bp duplex at 3' end of strand 1, 5' ssRNA overhang 26 nt): binds

B2: CE Risk (C), rs12973192 (mixed)
RNA 1: B1 RNA 1 with G4C
RNA 2: UGGCGACGGCAGCGAGGC
modifications: 5' biotin on 18-mer strand
binding result [2]: binds

B3: Repeat Ref ((GATG)4), rs56041637 (mixed)
RNA 1: UGGAUGGAUGGAUGGAUGGAGCCUCGCUGCCGUCGCCA
RNA 2: UGGCGACGGCAGCGAGGC
modifications: 5' biotin on 18-mer strand
binding result ([1]; 18 bp duplex at 3' end of strand 1, 5' ssRNA overhang 20 nt): binds

B4: Intron Ref (U), rs12608932 (mixed)
RNA 1: AAUGGAUGGUUGGAUAAAUUGAUGGGUGGAUGGAUGCCUCGCUGCCGUCGCCA
RNA 2: UGGCGACGGCAGCGAGGC
modifications: 5' biotin on 18-mer strand
binding result [3]: binds
